Measured values from patent US7455837B2, “Compositions and methods for the diagnosis and treatment of sepsis” (The Regents of the University of Michigan, priority 2002, dated 2008).

Assays:
mouse neutrophils [1] = assay: Chemotaxis assay of mouse neutrophils to mC5a; type: cell-based
Procedure: Five hours later, mice were killed and the peritoneal cavity was lavaged four times with 10 mL DPBS. Fluids were centrifuged and residual red blood cells removed by a hypotonic lysis step. Remaining peritoneal cells were washed and resuspended in HBSS.
After neutrophil isolation, cells were fluorescein-labeled with BCECF (2′,7′-bis [2-carboxyethyl]-5-[and 6]-carboxy-fluorescein acetoxymethyl ester) (Molecular Probes, Eugene, Oreg.). Labeled neutrophils (5×10^6 cells/mL) were then loaded into the upper chambers of 96-well minichambers (NeuroProbe, Cabin John, Md.). […] The upper and lower chambers were separated by a polycarbonate membrane of 3 μm porosity. Minichambers were incubated for 60 min at 37° C. The number of cells migrating through polycarbonate filters to the lower surface was measured by cytofluorometry (Cytofluor II, PerSeptive Biosystems, Framingham, Mass.). For each measurement, quadruplicate samples were used.

mouse C5a receptor = biological target: T1, mouse C5a receptor (mouse, UniProt P30993 1-351); assay: competition of unlabeled mC5a with 100 pM 125I-mC5a on mouse peritoneal neutrophils, 20 min at 4 C
T1 construct: whole, on cells
T1 sequence (looked up): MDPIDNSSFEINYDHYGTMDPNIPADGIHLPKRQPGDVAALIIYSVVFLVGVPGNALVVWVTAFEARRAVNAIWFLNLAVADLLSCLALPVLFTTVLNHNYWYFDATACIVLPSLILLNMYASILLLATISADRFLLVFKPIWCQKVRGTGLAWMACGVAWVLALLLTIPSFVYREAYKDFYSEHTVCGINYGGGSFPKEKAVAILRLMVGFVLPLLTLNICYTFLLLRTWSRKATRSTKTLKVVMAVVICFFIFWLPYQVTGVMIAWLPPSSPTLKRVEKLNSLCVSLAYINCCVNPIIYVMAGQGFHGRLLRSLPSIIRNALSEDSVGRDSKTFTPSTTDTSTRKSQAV
Procedure: Isolated neutrophils were incubated for 1 h at 4° C. in binding buffer (HBSS without Ca^2+ and containing 1% BSA) to block nonspecific surface binding sites. […] After an incubation interval of 20 min at 4° C., cell suspensions were layered over 20% sucrose and sedimented by centrifugation at 11,000 g (Beckman Microfuge B, Palo Alto, Calif.) for 2 min. […] Binding affinities (K_d values) of C5a were calculated in the conventional manner (Chenoweth et al., (1978) *Proc. Natl. Acad. Sci. USA* 75,3943-3947). […]
Recent reports have described CSaRa binding affinities to rat and human neutrophils (Wong et al., (1998) *J. Med. Chem.* 41,3417-3425; Short et al., (1999) *Br. J. Pharmacol.* 128,511-514). To assess whether C5aRa also binds to mouse neutrophils, competitive binding studies using C5aRa and mC5a were undertaken.

mouse neutrophils [2] = assay: Neutrophil oxidative burst (H2O2 generation, PMA-stimulated); type: cell-based
Procedure: (§1) Mice were injected i.p. with 2.5 mL sterile 3% thioglycolate medium (DIFCO Laboratories, Detroit, Mich.) for harvesting of mouse neutrophils (Ajuebor et al., (1999) J. Immunol. 162,1685-1691). Five hours later, mice were killed and the peritoneal cavity was lavaged four times with 10 mL DPBS. Fluids were centrifuged and residual red blood cells removed by a hypotonic lysis step. Remaining peritoneal cells were washed and resuspended in HBSS. Aliquots of cells were stained with Diff-Quik Stain (Dade International, Miami, Fla.) and examined for neutrophil purity (>95%) and viability (>97%) by trypan blue exclusion (Fildes et al., (1998) J. Trauma 45,479-484).
H2O2 generation was determined in the presence of 1 mM sodium azide. As indicated, mouse neutrophils (2×10^6 cells/mL) were pretreated with mC5a (10 nM) for 60 min at 37° C. in the presence or absence of different amounts of C5aRa. To stimulate neutrophils, cells were then incubated with PMA (25 ng/mL) for an additional 10 min. The reaction was stopped by addition of 0.1 mL trichloroacetic acid (50% v/v), then ferrous ammonium sulfate (1.5 mM) and potassium thiocyanate (0.25 M) were added to supernatant fluids. The absorbance of the ferrithiocyanate complex was measured at 480 nm and compared with a standard curve generated from dilutions of reference solutions of H2O2.

[3] = biological target: T2, C5aR on mouse peritoneal neutrophils (Mus musculus, UniProt P30993); assay: Competitive binding of 125I-mC5a to mouse peritoneal neutrophils; settings: recombinant protein
T2 construct: Mice were injected i.p. with 2.5 mL sterile 3% thioglycolate medium (DIFCO Laboratories, Detroit, Mich.) for harvesting of mouse neutrophils; endogenous in cells; host or cells: mouse peritoneal neutrophils (thioglycolate-elicited, whole cells)
T2 sequence (P30993 1-351): T1 sequence (looked up)
Procedure: as §1
For binding studies, mC5a was labeled with […], using the chloramine T-based protocol (Bennett et al., (1997) Methods Enzymol. 288,134-148) with gentle oxidation, which preserves chemotactic activity of mC5a for mouse neutrophils. Isolated neutrophils were incubated for 1 h at 4° C. in binding buffer (HBSS without Ca^2+ and containing 1% BSA) to block nonspecific surface binding sites. […] Binding affinities (Kd values) of C5a were calculated in the conventional manner (Chenoweth et al., (1978) Proc. Natl. Acad. Sci. USA 75,3943-3947). […]

^125I-C5aRa: C5aRa labeled with 125I by the chloramine T method (FXPXWR; non-natural residues; cyclised or stapled) [reference compound]
chemotactic response to mC5a in presence of radiolabeled antagonist (mouse neutrophils [1]; 10 nM 125I-C5aRa, mC5a 1-100 nM): virtually completely suppressed

B1: recombinant mouse C5a (ligand, UniProt P06684 679-755, looked up)
chain: NLHLLRQKIEEQAAKYKHSVPKKCCYDGARVNFYETCEERVARVTIGPLCIRAFNECCTIANKIRKESPHKPVQLGR
modifications: 125I label (chloramine T) on the tracer form only; the competitor was unlabeled
notes: domain: C5a; Expressed in E. coli BL21(DE3) pLysS from pET 15b (NdeI/BamHI) and purified over a Ni2+ column; C5a is only a fragment of it; also called mC5a; recombinant mouse (m) C5a
Kd (mouse C5a receptor): ~3 nM

B2: mC5a: recombinant mouse C5a expressed in BL21 (DE3) pLysS cells, purified over a Ni2+ column (protein)
chain: B1 chain
basal H2O2 production vs ctrl cells (mouse neutrophils [2]; 10 nM alone, 60 min at 37° C., no PMA): neither mC5a alone nor C5aRa alone significantly altered | PMA-stimulated H2O2 production after exposure to mC5a (mouse neutrophils [2]; 10 nM mC5a 60 min, absence of C5aRa, then PMA 25 ng/mL): completely abolished | binding to mouse neutrophils [3]: high-affinity binding | chemotactic response evoked by the substance alone (mouse neutrophils [1]; 10 nM): robust chemotactic response | biological (chemotactic) activity (mouse neutrophils [1]; recombinant protein): had biological (chemotactic) activity
